Assay results as given in US20240316154A1 (Eli Lilly, published 2024).
Read-outs that look alike come from different tables or passages of the source. Blank lines part the entries; values can stand above or below the binder they belong to.

How the values were obtained:
Rabbit serum albumin [1] = biological target: T1, Rabbit serum albumin (rabbit, UniProt P49065 25-608); assay: SPR, SA on chip, 25 C
T1 construct: bought; immobilised on a CM5 chip by amine coupling; also called Rabbit SA

[2] = biological target: human GFRAL and human RET on HEK293 cells (human, UniProt Q6UXV0 19-394; P07949 29-1114); assay: cell-based or functional assay
Human serum albumin [3] = biological target: T2, Human serum albumin (human, UniProt P02768 25-609); assay: SPR, SA on chip, 1:1 fit, 25 C
T2 construct: bought; immobilised on a CM5 chip by amine coupling; also called Human SA

[4] = biological target: T3, Cynomolgus monkey serum albumin (cynomolgus monkey, UniProt A2V9Z4 25-608); assay: SPR, SA on chip, 1:1 fit, 25 C
T3 construct: bought; immobilised on a CM5 chip by amine coupling; also called Cyno SA

Mouse serum albumin [5] = biological target: T4, Mouse serum albumin (mouse, UniProt P07724 25-608); assay: SPR, SA on chip, 1:1 fit, 25 C
T4 construct: bought; immobilised on a CM5 chip by amine coupling; also called Mouse SA

Rat serum albumin [6] = biological target: T5, Rat serum albumin (rat, UniProt P02770 25-608); assay: SPR, SA on chip, 1:1 fit, 25 C
T5 construct: bought; immobilised on a CM5 chip by amine coupling; also called Rat SA

Pig serum albumin [7] = biological target: T6, Pig serum albumin (pig, UniProt P08835 25-607); assay: SPR, SA on chip, 1:1 fit, 25 C
T6 construct: bought; immobilised on a CM5 chip by amine coupling; also called Pig SA

Dog serum albumin [8] = biological target: T7, Dog serum albumin (dog, UniProt P49822 25-608); assay: SPR, SA on chip, 1:1 fit, 25 C
T7 construct: bought; immobilised on a CM5 chip by amine coupling; also called Dog SA

Cow serum albumin [9] = biological target: T8, Cow serum albumin (cow, UniProt P02769 25-607); assay: SPR, SA on chip, 25 C; ka and kd printed as *not applicable
T8 construct: bought; immobilised on a CM5 chip by amine coupling; also called Cow SA

Rabbit serum albumin [10] = biological target: T1, Rabbit serum albumin; assay: SPR, SA on chip, 25 C; remark: listed apart in the source
[11] = biological target: human ErbB4 receptor (NCBI Ref. Seq. No. NP_001036064.1) (human, UniProt Q15303 26-1308); assay: cell-based or functional assay
Human serum albumin [12] = biological target: T2, Human serum albumin; assay: SPR, SA on chip, 1:1 fit, 25 C; remark: listed apart in the source
[13] = biological target: T3, Cynomolgus monkey serum albumin; assay: SPR, SA on chip, 1:1 fit, 25 C; remark: listed apart in the source
Mouse serum albumin [14] = biological target: T4, Mouse serum albumin; assay: SPR, SA on chip, 1:1 fit, 25 C; remark: listed apart in the source
Rat serum albumin [15] = biological target: T5, Rat serum albumin; assay: SPR, SA on chip, 1:1 fit, 25 C; remark: listed apart in the source
Pig serum albumin [16] = biological target: T6, Pig serum albumin; assay: SPR, SA on chip, 1:1 fit, 25 C; remark: listed apart in the source
Dog serum albumin [17] = biological target: T7, Dog serum albumin; assay: SPR, SA on chip, 1:1 fit, 25 C; remark: listed apart in the source
Cow serum albumin [18] = biological target: T8, Cow serum albumin; assay: SPR, SA on chip, 1:1 fit, 25 C
Rabbit serum albumin [19] = biological target: T1, Rabbit serum albumin; assay: SPR, SA on chip, 25 C; remark: listed apart in the source
Human serum albumin [20] = biological target: T2, Human serum albumin; assay: SPR, SA on chip, 1:1 fit, 25 C; remark: listed apart in the source
[21] = biological target: T3, Cynomolgus monkey serum albumin; assay: SPR, SA on chip, 1:1 fit, 25 C; remark: listed apart in the source
Mouse serum albumin [22] = biological target: T4, Mouse serum albumin; assay: SPR, SA on chip, 1:1 fit, 25 C; remark: listed apart in the source
Rat serum albumin [23] = biological target: T5, Rat serum albumin; assay: SPR, SA on chip, 1:1 fit, 25 C; remark: listed apart in the source
Pig serum albumin [24] = biological target: T6, Pig serum albumin; assay: SPR, SA on chip, 1:1 fit, 25 C; remark: listed apart in the source
Dog serum albumin [25] = biological target: T7, Dog serum albumin; assay: SPR, SA on chip, 1:1 fit, 25 C; remark: listed apart in the source
Cow serum albumin [26] = biological target: T8, Cow serum albumin; assay: SPR, SA on chip, 1:1 fit, 25 C; remark: listed apart in the source
Rabbit serum albumin [27] = biological target: T1, Rabbit serum albumin; assay: SPR, SA on chip, 25 C; remark: listed apart in the source
[28] = biological target: IL-2 receptor-dimer pair of the PathHunter IL-2 BioAssay cells; assay: cell-based or functional assay
Human serum albumin [29] = biological target: T2, Human serum albumin; assay: SPR, SA on chip, 1:1 fit, 25 C; remark: listed apart in the source
[30] = biological target: T3, Cynomolgus monkey serum albumin; assay: SPR, SA on chip, 1:1 fit, 25 C; remark: listed apart in the source
Mouse serum albumin [31] = biological target: T4, Mouse serum albumin; assay: SPR, SA on chip, 1:1 fit, 25 C; remark: listed apart in the source
Rat serum albumin [32] = biological target: T5, Rat serum albumin; assay: SPR, SA on chip, 1:1 fit, 25 C; remark: listed apart in the source
Pig serum albumin [33] = biological target: T6, Pig serum albumin; assay: SPR, SA on chip, 1:1 fit, 25 C; remark: listed apart in the source
Dog serum albumin [34] = biological target: T7, Dog serum albumin; assay: SPR, SA on chip, 1:1 fit, 25 C; remark: listed apart in the source
Cow serum albumin [35] = biological target: T8, Cow serum albumin; assay: SPR, SA on chip, 1:1 fit, 25 C; remark: listed apart in the source

binding result (Rabbit serum albumin [1]): no binding (tested: up to 1000 nM)
hGFRAL/RET EC50 (pM), p-ERK1/2 AlphaLISA [2]: 101 pM
Kd (Human serum albumin [3]): 0.2 nM
koff (Human serum albumin [3]): 0.00014 s⁻¹
kon (Human serum albumin [3]): 670000 M⁻¹ s⁻¹
Kd [4]: 0.45 nM
koff [4]: 0.00034 s⁻¹
kon [4]: 740000 M⁻¹ s⁻¹
Kd (Mouse serum albumin [5]): 0.86 nM
koff (Mouse serum albumin [5]): 0.0012 s⁻¹
kon (Mouse serum albumin [5]): 1.4e+06 M⁻¹ s⁻¹
Kd (Rat serum albumin [6]): 0.74 nM
koff (Rat serum albumin [6]): 0.00077 s⁻¹
kon (Rat serum albumin [6]): 1e+06 M⁻¹ s⁻¹
Kd (Pig serum albumin [7]): 3.3 nM
koff (Pig serum albumin [7]): 0.0028 s⁻¹
kon (Pig serum albumin [7]): 850000 M⁻¹ s⁻¹
Kd (Dog serum albumin [8]): 0.6 nM
koff (Dog serum albumin [8]): 0.00068 s⁻¹
kon (Dog serum albumin [8]): 1.1e+06 M⁻¹ s⁻¹
Kd (Cow serum albumin [9]): 28 nM
B1: VHH-based fusion of Example 5, VHH fusion 5 (MC6.1C22-(G4Q)5-GDF15) (other)
chain: EVQLLESGGGLVQPGGSLRLSCAASGRYIDETAVAWFRQAPGKEREFVAGIGGGVDITYYADSVKGRFTISRDNSKNTLYLQMNSLRPEDTAVYYCAARPGRPLITSKVADLYPYWGQGTLVTVSSGGGGQGGGGQGGGGQGGGGQGGGGQGDHCPLGPGRCCRLHTVRASLEDLGWADWVLSPREVQVTMCIGACPSQFRAANMHAQIKTSLHRLKPDTVPAPCCVPASYNPMVLIQKTDTGVSLQTYDDLLAKDCHCI
notes: also called Compound 5; VHH-GDF15 fusion

binding result (Rabbit serum albumin [10]): no binding (tested: up to 1000 nM)
EC50 (ng/mL), PathHunter ErbB4/ErbB4 dimerization assay [11]: 112 ng/mL
Kd (Human serum albumin [12]): 0.19 nM
koff (Human serum albumin [12]): 0.00019 s⁻¹
kon (Human serum albumin [12]): 1e+06 M⁻¹ s⁻¹
Kd [13]: 0.94 nM
koff [13]: 0.00063 s⁻¹
kon [13]: 680000 M⁻¹ s⁻¹
Kd (Mouse serum albumin [14]): 6.4 nM
koff (Mouse serum albumin [14]): 0.0042 s⁻¹
kon (Mouse serum albumin [14]): 660000 M⁻¹ s⁻¹
Kd (Rat serum albumin [15]): 3.1 nM
koff (Rat serum albumin [15]): 0.003 s⁻¹
kon (Rat serum albumin [15]): 970000 M⁻¹ s⁻¹
Kd (Pig serum albumin [16]): 15 nM
koff (Pig serum albumin [16]): 0.006 s⁻¹
kon (Pig serum albumin [16]): 400000 M⁻¹ s⁻¹
Kd (Dog serum albumin [17]): 2.2 nM
koff (Dog serum albumin [17]): 0.0017 s⁻¹
kon (Dog serum albumin [17]): 780000 M⁻¹ s⁻¹
Kd (Cow serum albumin [18]): 100 nM
koff (Cow serum albumin [18]): 0.058 s⁻¹
kon (Cow serum albumin [18]): 570000 M⁻¹ s⁻¹
B2: VHH-based fusion of Example 4, VHH fusion 4 (MC6.1C22-(G4Q)5-NRG1) (other)
chain: EVQLLESGGGLVQPGGSLRLSCAASGRYIDETAVAWFRQAPGKEREFVAGIGGGVDITYYADSVKGRFTISRDNSKNTLYLQMNSLRPEDTAVYYCAARPGRPLITSKVADLYPYWGQGTLVTVSSGGGGQGGGGQGGGGQGGGGQGGGGQSHLVKCAEKEKTFCVNGGECFMVKDLSNPSRYLCKCPNEFTGDRCQNYVMASFYKHLGIEFMEAEELYQ
notes: also called Compound 4; VHH-NRG1 fusion

binding result (Rabbit serum albumin [19]): no binding (tested: up to 1000 nM)
EC50 (ng/mL), PathHunter ErbB4/ErbB4 dimerization assay [11]: 33.5 ng/mL
Kd (Human serum albumin [20]): 1.9 nM
koff (Human serum albumin [20]): 0.00023 s⁻¹
kon (Human serum albumin [20]): 120000 M⁻¹ s⁻¹
Kd [21]: 6.1 nM
koff [21]: 0.00087 s⁻¹
kon [21]: 140000 M⁻¹ s⁻¹
Kd (Mouse serum albumin [22]): 62 nM
koff (Mouse serum albumin [22]): 0.0088 s⁻¹
kon (Mouse serum albumin [22]): 140000 M⁻¹ s⁻¹
Kd (Rat serum albumin [23]): 52 nM
koff (Rat serum albumin [23]): 0.006 s⁻¹
kon (Rat serum albumin [23]): 120000 M⁻¹ s⁻¹
Kd (Pig serum albumin [24]): 130 nM
koff (Pig serum albumin [24]): 0.012 s⁻¹
kon (Pig serum albumin [24]): 93000 M⁻¹ s⁻¹
Kd (Dog serum albumin [25]): 19 nM
koff (Dog serum albumin [25]): 0.0032 s⁻¹
kon (Dog serum albumin [25]): 170000 M⁻¹ s⁻¹
Kd (Cow serum albumin [26]): 470 nM
koff (Cow serum albumin [26]): 0.072 s⁻¹
kon (Cow serum albumin [26]): 160000 M⁻¹ s⁻¹
B3: VHH-based fusion of Example 3, VHH fusion 3 (NRG1-(G4Q)5-MC6.1C22.43) (other)
chain: SHLVKCAEKEKTFCVNGGECFMVKDLSNPSRYLCKCPNEFTGDRCQNYVMASFYKHLGIEFMEAEELYQGGGGQGGGGQGGGGQGGGGQGGGGQEVQLLESGGGLVQPGGSLRLSCAASGRYIDETAVAWFRQAPGKEREFVAGIGGGVDITYYADSVKGRFTISRDNSKNTLYLQMNSLRPEDTAVYYCAARPGRPLITSKVADLYPYWGQGTLVTVSSPP
notes: also called Compound 3; NRG1-VHH fusion

binding result (Rabbit serum albumin [27]): no binding (tested: up to 1000 nM)
EC50 (nM), PathHunter IL-2 BioAssay [28]: 6.7 nM
Kd (Human serum albumin [29]): 1.5 nM
koff (Human serum albumin [29]): 0.00026 s⁻¹
kon (Human serum albumin [29]): 180000 M⁻¹ s⁻¹
Kd [30]: 5 nM
koff [30]: 0.00088 s⁻¹
kon [30]: 180000 M⁻¹ s⁻¹
Kd (Mouse serum albumin [31]): 50 nM
koff (Mouse serum albumin [31]): 0.0087 s⁻¹
kon (Mouse serum albumin [31]): 170000 M⁻¹ s⁻¹
Kd (Rat serum albumin [32]): 34 nM
koff (Rat serum albumin [32]): 0.0066 s⁻¹
kon (Rat serum albumin [32]): 190000 M⁻¹ s⁻¹
Kd (Pig serum albumin [33]): 100 nM
koff (Pig serum albumin [33]): 0.012 s⁻¹
kon (Pig serum albumin [33]): 120000 M⁻¹ s⁻¹
Kd (Dog serum albumin [34]): 19 nM
koff (Dog serum albumin [34]): 0.0034 s⁻¹
kon (Dog serum albumin [34]): 170000 M⁻¹ s⁻¹
Kd (Cow serum albumin [35]): 380 nM
koff (Cow serum albumin [35]): 0.071 s⁻¹
kon (Cow serum albumin [35]): 190000 M⁻¹ s⁻¹
B4: VHH-based fusion of Example 6, VHH fusion 6 (IL2-(G4Q)5-MC6.1C22.43) (other)
chain: APQSSSTQQTQLQLEHLLLDLQMILNGINNYKNPKLTRMLTFKFYMPKKATELKHLQCLEEELKPLEEVLNLAQSKNFHLRPRDLISRINVIVLELKGSETTFMCEYADETATIVEFLNRWITFAQSIISTLTGGGGQGGGGQGGGGQGGGGQGGGGQEVQLLESGGGLVQPGGSLRLSCAASGRYIDETAVAWFRQAPGKEREFVAGIGGGVDITYYADSVKGRFTISRDNSKNTLYLQMNSLRPEDTAVYYCAARPGRPLITSKVADLYPYWGQGTLVTVSSPP
notes: also called Compound 6; IL-2-VHH fusion
